Consider one molecule from article doi:10.1101/2025.07.07.663466.

In this assay the target is T1, recombinant M. tuberculosis GroEL1 (M. tuberculosis), P9WPE9.
T1 chain: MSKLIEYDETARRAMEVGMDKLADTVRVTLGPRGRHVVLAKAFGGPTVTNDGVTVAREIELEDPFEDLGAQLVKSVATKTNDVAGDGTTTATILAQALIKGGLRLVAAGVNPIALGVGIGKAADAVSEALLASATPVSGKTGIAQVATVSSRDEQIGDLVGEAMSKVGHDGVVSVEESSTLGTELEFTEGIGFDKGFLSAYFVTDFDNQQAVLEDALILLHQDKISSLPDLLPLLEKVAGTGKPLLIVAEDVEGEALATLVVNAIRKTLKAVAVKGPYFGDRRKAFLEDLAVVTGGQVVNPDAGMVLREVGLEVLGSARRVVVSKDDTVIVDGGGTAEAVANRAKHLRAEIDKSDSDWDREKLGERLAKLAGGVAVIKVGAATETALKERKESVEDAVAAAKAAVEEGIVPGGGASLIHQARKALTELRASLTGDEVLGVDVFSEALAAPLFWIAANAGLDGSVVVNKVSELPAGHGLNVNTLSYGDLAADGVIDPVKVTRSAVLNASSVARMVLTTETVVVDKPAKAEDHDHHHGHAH
As to the kind of experiment: native gel or EMSA. The conditions noted are these: remark: other sources report otherwise. In general terms: Mobility shift assays separate free from complexed probe on a gel.

Broadly, the stoichiometry N is the number of molecules, sites or subunits per partner or assembly.

B1: recombinant M. tuberculosis GroEL1, P9WPE9 1-539 (natural protein)
chain: T1 chain
With B1, the stoichiometry N worked out at 2.
